Laboratory results from publication PMC6349404, “Integrin alpha11 is an Osteolectin receptor and is required for the maintenance of adult skeletal bone mass” (eLife, 2019).

What was measured:
Assay in all cases: ELISA; microtiter well binding assay; plates coated with 10 nM recombinant human Osteolectin, Pro-Collagen 1α or BSA overnight at 4°C, blocked with 10 mg/ml BSA; 6xHis tagged integrins in TBS (50 mM Tris-Cl pH 7.5, 150 mM NaCl) with 1 mM MnCl2; bound integrin detected with anti-His tag antibody and HRP secondary, OD 450 nm
Details in all cases: both partners purified
[1] = target: recombinant human integrin αMβ2 (human, UniProt P11215 17-1104; P05107 23-700)
[2] = target: T1, recombinant human integrin α11β1 (human, UniProt Q9UKX5 23-1141; P05556 21-728)
T1 construct: integrin α11, human, chain of the recombinant heterodimer; integrin β1, human, chain of the recombinant heterodimer; also called α11β1 integrin; source: bought: R and D Systems
T1 sequence (Q9UKX5 23-1141, chain 1 of 2): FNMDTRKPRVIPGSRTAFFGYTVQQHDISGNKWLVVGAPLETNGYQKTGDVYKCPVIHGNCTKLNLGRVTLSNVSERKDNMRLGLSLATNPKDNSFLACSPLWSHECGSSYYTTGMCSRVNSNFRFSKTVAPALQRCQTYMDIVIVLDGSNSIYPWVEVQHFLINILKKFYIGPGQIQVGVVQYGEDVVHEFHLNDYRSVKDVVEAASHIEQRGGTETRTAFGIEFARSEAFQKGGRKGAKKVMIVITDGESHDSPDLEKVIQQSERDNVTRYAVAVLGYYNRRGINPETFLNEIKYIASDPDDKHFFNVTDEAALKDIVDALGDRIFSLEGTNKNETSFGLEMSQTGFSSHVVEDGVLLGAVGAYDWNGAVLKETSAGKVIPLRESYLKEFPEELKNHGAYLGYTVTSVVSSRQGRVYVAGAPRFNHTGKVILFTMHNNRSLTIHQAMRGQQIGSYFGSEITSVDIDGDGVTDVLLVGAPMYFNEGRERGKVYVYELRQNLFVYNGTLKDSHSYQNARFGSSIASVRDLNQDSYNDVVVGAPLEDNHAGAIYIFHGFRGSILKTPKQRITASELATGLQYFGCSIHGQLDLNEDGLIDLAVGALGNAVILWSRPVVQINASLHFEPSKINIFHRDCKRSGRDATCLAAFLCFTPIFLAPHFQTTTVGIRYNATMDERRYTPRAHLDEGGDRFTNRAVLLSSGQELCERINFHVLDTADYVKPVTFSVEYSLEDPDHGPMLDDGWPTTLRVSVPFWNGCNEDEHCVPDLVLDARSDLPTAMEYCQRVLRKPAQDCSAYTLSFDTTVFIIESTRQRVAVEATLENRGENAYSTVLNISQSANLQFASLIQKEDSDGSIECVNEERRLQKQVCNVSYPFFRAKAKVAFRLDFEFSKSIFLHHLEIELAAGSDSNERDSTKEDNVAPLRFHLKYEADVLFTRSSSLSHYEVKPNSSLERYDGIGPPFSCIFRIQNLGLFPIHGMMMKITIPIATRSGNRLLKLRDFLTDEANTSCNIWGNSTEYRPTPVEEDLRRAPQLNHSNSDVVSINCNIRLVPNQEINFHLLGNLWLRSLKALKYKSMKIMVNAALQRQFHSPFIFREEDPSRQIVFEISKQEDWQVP
T1 sequence (P05556 21-728, chain 2 of 2): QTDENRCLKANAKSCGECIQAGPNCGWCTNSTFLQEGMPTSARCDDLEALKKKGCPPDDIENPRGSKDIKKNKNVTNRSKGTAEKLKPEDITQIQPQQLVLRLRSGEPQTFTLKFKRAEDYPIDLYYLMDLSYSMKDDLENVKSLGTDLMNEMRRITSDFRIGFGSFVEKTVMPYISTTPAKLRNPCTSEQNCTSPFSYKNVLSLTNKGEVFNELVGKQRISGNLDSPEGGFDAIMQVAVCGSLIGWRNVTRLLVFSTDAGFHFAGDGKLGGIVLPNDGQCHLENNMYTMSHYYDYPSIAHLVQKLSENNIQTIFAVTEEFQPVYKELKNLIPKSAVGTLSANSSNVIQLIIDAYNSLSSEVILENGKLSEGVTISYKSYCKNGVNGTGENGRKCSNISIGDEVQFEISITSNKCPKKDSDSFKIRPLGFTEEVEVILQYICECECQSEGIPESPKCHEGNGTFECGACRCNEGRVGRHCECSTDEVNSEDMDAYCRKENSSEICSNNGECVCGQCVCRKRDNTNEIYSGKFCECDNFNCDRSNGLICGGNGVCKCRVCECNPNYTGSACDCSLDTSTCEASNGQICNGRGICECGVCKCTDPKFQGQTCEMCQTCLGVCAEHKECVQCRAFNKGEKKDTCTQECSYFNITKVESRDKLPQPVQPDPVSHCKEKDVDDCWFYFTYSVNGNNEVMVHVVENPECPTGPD

[3] = target: T2, recombinant human integrin α10β1 (human, UniProt O75578 23-1122; P05556 21-728)
T2 construct: integrin α10, human, chain of the recombinant heterodimer; integrin β1, human, chain of the recombinant heterodimer; source: bought: R and D Systems
T2 sequence (O75578 23-1122, chain 1 of 2): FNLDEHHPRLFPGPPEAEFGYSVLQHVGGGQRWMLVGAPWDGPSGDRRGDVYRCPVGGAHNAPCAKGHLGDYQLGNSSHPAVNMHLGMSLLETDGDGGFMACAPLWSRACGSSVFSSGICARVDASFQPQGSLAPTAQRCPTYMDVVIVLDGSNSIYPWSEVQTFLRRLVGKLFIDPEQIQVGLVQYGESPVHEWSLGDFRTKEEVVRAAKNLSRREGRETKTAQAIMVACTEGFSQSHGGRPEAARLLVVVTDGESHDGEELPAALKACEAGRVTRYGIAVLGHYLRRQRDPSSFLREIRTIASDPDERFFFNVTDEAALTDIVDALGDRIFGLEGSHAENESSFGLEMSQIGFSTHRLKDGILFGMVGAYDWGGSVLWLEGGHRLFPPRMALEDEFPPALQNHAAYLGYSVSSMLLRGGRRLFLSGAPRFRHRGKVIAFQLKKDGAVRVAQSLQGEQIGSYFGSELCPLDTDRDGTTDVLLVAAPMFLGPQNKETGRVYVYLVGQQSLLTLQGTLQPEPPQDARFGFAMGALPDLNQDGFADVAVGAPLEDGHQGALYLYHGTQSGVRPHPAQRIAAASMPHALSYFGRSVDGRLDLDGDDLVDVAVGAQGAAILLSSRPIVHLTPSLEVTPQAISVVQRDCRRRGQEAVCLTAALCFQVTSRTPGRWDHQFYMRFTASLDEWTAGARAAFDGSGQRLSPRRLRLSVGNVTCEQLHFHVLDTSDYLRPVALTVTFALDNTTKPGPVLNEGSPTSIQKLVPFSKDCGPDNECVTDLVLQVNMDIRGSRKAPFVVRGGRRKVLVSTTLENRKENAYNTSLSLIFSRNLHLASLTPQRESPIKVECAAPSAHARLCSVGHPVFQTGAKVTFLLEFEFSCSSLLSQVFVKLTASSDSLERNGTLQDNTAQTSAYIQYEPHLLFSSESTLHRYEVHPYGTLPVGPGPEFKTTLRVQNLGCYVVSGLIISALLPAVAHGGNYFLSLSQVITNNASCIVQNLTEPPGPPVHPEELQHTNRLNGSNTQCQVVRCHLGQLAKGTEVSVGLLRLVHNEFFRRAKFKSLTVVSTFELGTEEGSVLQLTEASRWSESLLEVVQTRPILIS
T2 sequence (P05556 21-728, chain 2 of 2): as the sequence (P05556 21-728, chain 2 of 2) above

[4] = target: T3, recombinant human integrin α4β1 (human, UniProt P13612 35-977; P05556 21-728)
T3 construct: integrin α4, human, chain of the recombinant heterodimer; integrin β1, human, chain of the recombinant heterodimer; source: bought: R and D Systems
T3 sequence (P13612 35-977, chain 1 of 2): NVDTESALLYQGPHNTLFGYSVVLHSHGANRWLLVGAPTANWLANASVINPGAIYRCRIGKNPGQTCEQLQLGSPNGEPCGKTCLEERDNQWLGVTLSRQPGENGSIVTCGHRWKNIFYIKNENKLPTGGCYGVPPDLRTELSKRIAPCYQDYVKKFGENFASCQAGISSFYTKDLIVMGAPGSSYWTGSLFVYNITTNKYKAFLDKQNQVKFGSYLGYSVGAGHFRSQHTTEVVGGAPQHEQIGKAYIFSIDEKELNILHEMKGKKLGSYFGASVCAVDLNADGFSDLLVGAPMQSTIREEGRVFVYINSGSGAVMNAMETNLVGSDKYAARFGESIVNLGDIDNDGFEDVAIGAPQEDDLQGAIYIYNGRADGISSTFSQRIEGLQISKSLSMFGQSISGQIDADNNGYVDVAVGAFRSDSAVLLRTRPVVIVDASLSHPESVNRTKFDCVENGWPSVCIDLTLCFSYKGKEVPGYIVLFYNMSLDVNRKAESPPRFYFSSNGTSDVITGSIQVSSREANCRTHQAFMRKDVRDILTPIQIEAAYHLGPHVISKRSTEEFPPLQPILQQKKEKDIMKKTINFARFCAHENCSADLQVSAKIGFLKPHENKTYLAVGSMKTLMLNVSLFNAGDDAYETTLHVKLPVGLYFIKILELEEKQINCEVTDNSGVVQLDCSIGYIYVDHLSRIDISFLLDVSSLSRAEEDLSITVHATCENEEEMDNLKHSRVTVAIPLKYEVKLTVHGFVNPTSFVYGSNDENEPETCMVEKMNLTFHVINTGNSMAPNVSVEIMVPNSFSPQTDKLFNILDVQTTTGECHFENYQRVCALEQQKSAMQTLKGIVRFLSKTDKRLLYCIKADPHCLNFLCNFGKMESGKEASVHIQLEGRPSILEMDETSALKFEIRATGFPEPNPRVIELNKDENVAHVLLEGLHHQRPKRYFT
T3 sequence (P05556 21-728, chain 2 of 2): as the sequence (P05556 21-728, chain 2 of 2) above

[5] = target: T4, recombinant human integrin α9β1 (human, UniProt Q13797 30-981; P05556 21-728)
T4 construct: integrin α9, human, chain of the recombinant heterodimer; integrin β1, human, chain of the recombinant heterodimer; source: bought: R and D Systems
T4 sequence (Q13797 30-981, chain 1 of 2): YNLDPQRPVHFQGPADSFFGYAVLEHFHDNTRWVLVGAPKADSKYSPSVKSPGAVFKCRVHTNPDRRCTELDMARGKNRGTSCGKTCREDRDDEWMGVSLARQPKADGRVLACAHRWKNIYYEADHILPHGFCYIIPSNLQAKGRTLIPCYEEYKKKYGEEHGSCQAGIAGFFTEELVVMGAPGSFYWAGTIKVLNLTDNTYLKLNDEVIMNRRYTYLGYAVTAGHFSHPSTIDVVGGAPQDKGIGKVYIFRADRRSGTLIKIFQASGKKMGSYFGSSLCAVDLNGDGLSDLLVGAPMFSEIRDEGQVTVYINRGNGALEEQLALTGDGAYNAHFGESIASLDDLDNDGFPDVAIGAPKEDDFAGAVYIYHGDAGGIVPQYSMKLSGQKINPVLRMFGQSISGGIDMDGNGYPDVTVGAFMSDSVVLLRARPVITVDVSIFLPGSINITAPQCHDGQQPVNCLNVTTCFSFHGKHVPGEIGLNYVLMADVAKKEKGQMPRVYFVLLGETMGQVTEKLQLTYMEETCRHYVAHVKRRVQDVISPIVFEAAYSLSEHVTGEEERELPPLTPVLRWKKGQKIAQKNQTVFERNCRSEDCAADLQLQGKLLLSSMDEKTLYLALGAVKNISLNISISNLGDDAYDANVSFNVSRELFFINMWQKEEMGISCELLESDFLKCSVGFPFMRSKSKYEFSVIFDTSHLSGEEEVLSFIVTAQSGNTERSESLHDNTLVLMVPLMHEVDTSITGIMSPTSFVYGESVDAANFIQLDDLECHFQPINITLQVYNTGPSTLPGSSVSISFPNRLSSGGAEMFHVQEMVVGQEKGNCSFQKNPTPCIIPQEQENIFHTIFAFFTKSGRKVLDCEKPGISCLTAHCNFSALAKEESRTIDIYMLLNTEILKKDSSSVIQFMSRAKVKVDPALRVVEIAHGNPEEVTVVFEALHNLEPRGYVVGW
T4 sequence (P05556 21-728, chain 2 of 2): as the sequence (P05556 21-728, chain 2 of 2) above

B1: recombinant human Osteolectin (ligand, UniProt Q9Y240 22-323, looked up)
chain: ARGAEREWEGGWGGAQEEEREREALMLKHLQEALGLPAGRGDENPAGTVEGKEDWEMEEDQGEEEEEEATPTPSSGPSPSPTPEDIVTYILGRLAGLDAGLHQLHVRLHALDTRVVELTQGLRQLRNAAGDTRDAVQALQEAQGRAEREHGRLEGCLKGLRLGHKCFLLSRDFEAQAAAQARCTARGGSLAQPADRQQMEALTRYLRAALAPYNWPVWLGVHDRRAEGLYLFENGQRVSFFAWHRSPRPELGAQPSASPHPLSPDQPNGGTLENCVAQASDDGSWWDHDCQRRLYYVCEFPF
notes: Osteolectin/Clec11a, human; cDNA cloned into pcDNA3 with a C-terminal 1XFlag-tag; secreted into the culture medium; also called rhOln; Clec11a
B1 gave a Kd [1] greater than 100 nM, a Kd [2] of 0.3 nM and a Kd [3] of 0.3 nM. The Kd [4] was greater than 100 nM and the Kd [5] was greater than 100 nM.
